Test results: patent publication US20190153061A1

B1: BCMA-4NP tool CAR (126021) (protein, not shown: a dimerising Fc or GST)
chain: QVQLVQSGAEVKKPGSSVKVSCKASGGTFSNYWMHWVRQAPGQGLEWMGATYRGHSDTYYNQKFKGRVTITADKSTSTAYMELSSLRSEDTAVYYCARGAIYNGYDVLDNWGQGTLVTVSSGGGGSGGGGSGGGGSGGGGSDIQMTQSPSSLSASVGDRVTITCSASQDISNYLNWYQQKPGKAPKLLIYYTSNLHSGVPSRFSGSGSGTDFTLTISSLQPEDFATYYCQQYRKLPWTFGQGTKLEIKR
B2: BCMA-15 CAR (139114) (protein)
chain: EVQLVESGGGLVQPGGSLRLSCAVSGFALSNHGMSWVRRAPGKGLEWVSGIVYSGSTYYAASVKGRFTISRDNSRNTLYLQMNSLRPEDTAIYYCSAHGGESDVWGQGTTVTVSSASGGGGSGGRASGGGGSEIVLTQSPGTLSLSPGERATLSCRASQSIGSSSLAWYQQKPGQAPRLLMYGASSRASGIPDRFSGSGSGTDFTLTISRLEPEDFAVYYCQQYAGSPPFTFGQGTKVEIKTTTPAPRPPTPAPTIASQPLSLRPEACRPAAGGAVHTRGLDFACDIYIWAPLAGTCGVLLLSLVITLYCKRGRKKLLYIFKQPFMRPVQTTQEEDGCSCRFPEEEEGGCELRVKFSRSADAPAYKQGQNQLYNELNLGRREEYDVLDKRRGRDPEMGGKPRRKNPQEGLYNELQKDKMAEAYSEIGMKGERRRGKGHDGLYQGLSTATKDTYDALHMQALPPR
B3: BCMA-8 CAR (139107) (protein)
chain: EVQLVETGGGVVQPGGSLRLSCAVSGFALSNHGMSWVRRAPGKGLEWVSGIVYSGSTYYAASVKGRFTISRDNSRNTLYLQMNSLRPEDTAIYYCSAHGGESDVWGQGTTVTVSSASGGGGSGGRASGGGGSEIVLTQSPGTLSLSPGERATLSCRASQSVGSTNLAWYQQKPGQAPRLLIYDASNRATGIPDRFSGGGSGTDFTLTISRLEPEDFAVYYCQQYGSSPPWTFGQGTKVEIKTTTPAPRPPTPAPTIASQPLSLRPEACRPAAGGAVHTRGLDFACDIYIWAPLAGTCGVLLLSLVITLYCKRGRKKLLYIFKQPFMRPVQTTQEEDGCSCRFPEEEEGGCELRVKFSRSADAPAYKQGQNQLYNELNLGRREEYDVLDKRRGRDPEMGGKPRRKNPQEGLYNELQKDKMAEAYSEIGMKGERRRGKGHDGLYQGLSTATKDTYDALHMQALPPR

Molecular target: B-cell maturation antigen (BCMA) expressed on cells (human), Q02223
Assay: cell-based or functional assay

Chain of B-cell maturation antigen (BCMA) expressed on cells (human), Q02223 (Q02223 whole entry): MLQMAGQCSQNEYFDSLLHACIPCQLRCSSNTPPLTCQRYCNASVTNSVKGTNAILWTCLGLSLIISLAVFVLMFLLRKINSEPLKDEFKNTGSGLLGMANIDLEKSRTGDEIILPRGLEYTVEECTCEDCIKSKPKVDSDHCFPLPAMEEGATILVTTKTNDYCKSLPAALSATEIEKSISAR

Row | Binder | Cell killing EC50; KMS11-luc [not printed] | JNL binding assay, ratio to K562; K562-BCMA | JNL binding assay, ratio to K562; NCI-H929 | JNL binding assay, ratio to K562; RPMI 8226 | Proliferation, CD3 ratio to no target; K562-BCMA | Proliferation, CD3 ratio to no target; KMS11-luc | Proliferation, CD3 ratio to no target; NCI-H929 | Proliferation, CD3 ratio to no target; RPMI 8226 | Proliferation, CD4 ratio to no target; K562-BCMA | Proliferation, CD4 ratio to no target; KMS11-luc
1 | B1 | 0.12 | 3.15 | 2.27 | 3.54 | 5.52 | 5.41 | 6.52 | 5.83 | 8.5 | 5.54
2 | B2 | 0.11 | 2.91 | 2.79 | 3.49 | 3.94 | 3.51 | 4.08 | 3.73 | 4.87 | 3.82
3 | B3 | 0.14 | 3.17 | 2.67 | 3.87 | 2.55 | 2.46 | 2.17 | 2.56 | 3.59 | 3.11

Same assay, conditions: not given

Row | Binder | Proliferation, CD4 ratio to no target; NCI-H929 | Proliferation, CD4 ratio to no target; RPMI 8226 | Proliferation, CD8 ratio to no target; K562-BCMA | Proliferation, CD8 ratio to no target; KMS11-luc | Proliferation, CD8 ratio to no target; NCI-H929 | Proliferation, CD8 ratio to no target; RPMI 8226
4 | B1 | 8.98 | 8.5 | 3.06 | 5.2 | 4.31 | 3.49
5 | B2 | 4.82 | 4.24 | 1.89 | 2.73 | 2.42 | 2.51
6 | B3 | 2.98 | 3.33 | 1.59 | 1.83 | 1.41 | 1.81
